Tests used:
[1] = target: Zika virus envelope glycoprotein E, as displayed on recombinant F2A virus-like particles (Zika virus (strain BeH818995)); assay: non-reducing SDS-PAGE with Western blot; cell culture medium of transfected 293T cells, 72 and 96 h posttransfection at 37°C, 20 μg of total protein per sample; nonreducing conditions; E detected with monoclonal 4G2 antibody
[2] = target: Zika virus envelope glycoprotein E, as displayed on recombinant F2A virus-like particles (Zika virus (strain BeH818995)); assay: SDS-PAGE with Western blot; fractions of the two-step chromatographic purification of F2A VLPs (HiTrap Capto Q, then HiScreen Capto Core 700 flow-through); immunoblot of E

Substance “Zika virus envelope glycoprotein E, as displayed on recombinant F2A virus-like particles (natural protein)” has a stoichiometry N [1] of 2 and a stoichiometry N [2] of 2.
